A short description of data set [1]: western blot, SGTA+Vpu-induced rise of 23-kDa species. The settings on record: glycan lost; control: wild type. (In western blotting, separated proteins are transferred to a membrane and probed.)
The nature of data set [2]: western blot, 23-kDa tetherin level ± SGTA and Vpu. As to conditions: glycan changed form; control: untreated.
The nature of data set [3]: cytosol/membrane fractionation ± SGTA and Vpu, anti-HA blot. The settings on record: glycan lost; control: wild type 23-kDa species.

B1: tetherin/BST-2/CD317/HM1.24: N65A (protein)
parent chain: MASTSYDYCRVPMEDGDKRCKLLLGIGILVLLIIVILGVPLIIFTIKANSEACRDGLRAVMECRNVTHLLQQELTEAQKGFQDVEAQAATCNHTVMALMASLDAEKAQGQKKVEELEGEITTLNHKLQDASAEVERLRRENQVLSVRIADKKYYPSSQDSSSAAAPQLLIVLLGLSALLQ
Consider B1, for which the expression_or_secretion entry in data set [1] was “no change”.

B2: tetherin/BST-2/CD317/HM1.24: N92A (protein)
parent chain: MASTSYDYCRVPMEDGDKRCKLLLGIGILVLLIIVILGVPLIIFTIKANSEACRDGLRAVMECRNVTHLLQQELTEAQKGFQDVEAQAATCNHTVMALMASLDAEKAQGQKKVEELEGEITTLNHKLQDASAEVERLRRENQVLSVRIADKKYYPSSQDSSSAAAPQLLIVLLGLSALLQ
For the protein B2, the expression_or_secretion entry in data set [1] is “no change”.

B3: tetherin/BST-2/CD317/HM1.24: kifunensine (protein)
parent chain: MASTSYDYCRVPMEDGDKRCKLLLGIGILVLLIIVILGVPLIIFTIKANSEACRDGLRAVMECRNVTHLLQQELTEAQKGFQDVEAQAATCNHTVMALMASLDAEKAQGQKKVEELEGEITTLNHKLQDASAEVERLRRENQVLSVRIADKKYYPSSQDSSSAAAPQLLIVLLGLSALLQ
In the case of B3, the expression_or_secretion result in data set [2] is reported as “no change”.

B4: tetherin/BST-2/CD317/HM1.24: NN-AA (protein)
parent chain: MASTSYDYCRVPMEDGDKRCKLLLGIGILVLLIIVILGVPLIIFTIKANSEACRDGLRAVMECRNVTHLLQQELTEAQKGFQDVEAQAATCNHTVMALMASLDAEKAQGQKKVEELEGEITTLNHKLQDASAEVERLRRENQVLSVRIADKKYYPSSQDSSSAAAPQLLIVLLGLSALLQ
B4: the localisation_or_trafficking result in data set [3] is reported as “no change”. Moreover, in data set [1], the expression_or_secretion result is recorded as “abolishes”.

The values are drawn from publication PMC4840321.
